Laboratory results from US20170253656A1 (SUTRO BIOPHARMA, published 2017).
Residue numbers refer to the chain shown, from its start. Each block holds one binder with its values, some of them ahead of it.

Molecular target: T1, hu-CD74 antigen (R&D SYSTEMS catalog #3590-CD-050) (human, UniProt P04233-2 73-232, limits assumed)
T1 construct: Bought antigen; also called rhCD74; human CD74
T1 sequence (looked up): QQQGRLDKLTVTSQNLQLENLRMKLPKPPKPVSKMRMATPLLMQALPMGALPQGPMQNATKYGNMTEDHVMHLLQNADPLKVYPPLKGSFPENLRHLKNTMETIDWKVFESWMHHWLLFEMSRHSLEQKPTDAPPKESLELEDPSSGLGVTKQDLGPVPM
Assay: SPR (Biacore T200), IgG captured on anti-human Fc, rhCD74 analyte
Protocol: Kinetic binding experiments were performed at 25° C. using 1×HBS-EP+buffer. Kinetic data was collected by injecting test and control antibodies at concentrations of 10, 5 and 2.5 μg/mL for 12 s at a flow rate of 10 μl/min on flow cells 2, 3 and 4 respectively, followed by a buffer wash for 30 s at the same flow rate. Kinetic characterization of antibody samples was carried out with 8 concentrations of a 1:2 dilution series of rhCD74 antigen (R&D Systems) and 2 injections of 0 nM antigen (buffer only). […] Between each ligand capture and analyte binding cycle, regeneration was carried out using 2 injections of 3M MgCl₂ for 30 seconds at 30 μL/min, followed by a 30 second buffer wash step.

B1: HC 1251_A06 (wt)/LC 1337_A07 (wt) (antibody, human IgG1, kappa, V domains shown)
VH: QVQLVESGGGVVQPGRSLRLSCAASGFDFSSYGMHWVRQAPDKGLEWVAVIWDDGSDRYYADSVKGRFTISRDNSKNTLYLQMNSLRAEDTAVYYCARGGTRVLGAIHGTDVWGQGTTVTVSS
VL: DIQMTQSPSSLSASVGDRVTITCRASQGISSWVAWYQQKPEKAPKSLIYGASRLQSGVPSRFSGSGSGTDFTLTISSLQPEDFATYYCQQYHTYPLTFGGGTKVEIKR
notes: IgG format
Kd: 0.168 nM | koff: 0.0001 s⁻¹ | kon: 598000 M⁻¹ s⁻¹

B2: HC 1251_A06 (g)/LC 1337_A07 (wt) (antibody, human IgG1, kappa, V domains shown)
VH: B1 VH with D42G
VL: B1 VL
notes: IgG format
Kd: 0.166 nM | koff: 9.4e-05 s⁻¹ | kon: 568000 M⁻¹ s⁻¹

B3: HC 1251_A06 (g)/LC 1275_C10 (g) (antibody, human IgG1, kappa, V domains shown)
VH: B1 VH with D42G
VL: B1 VL with L11V, I29V, V33L, E41G, S46L, G50S, S52R, R53Y, H92N, T93L
notes: IgG format
Kd: 0.209 nM | koff: 0.000148 s⁻¹ | kon: 705000 M⁻¹ s⁻¹

B5: HC 1251_A06 (g)/LC 1337_A07 (g) (antibody, human IgG1, kappa, V domains shown)
VH: B1 VH with D42G
VL: B1 VL with L11V, E41G, S46L
notes: IgG format
Kd: 0.168 nM | koff: 7.1e-05 s⁻¹ | kon: 424000 M⁻¹ s⁻¹

B6: HC 1251_A06 (wt)/LC 1337_A07 (g) (antibody, human IgG1, kappa, V domains shown)
VH: B1 VH
VL: B1 VL with L11V, E41G, S46L
notes: IgG format
Kd: 0.205 nM | koff: 0.000136 s⁻¹ | kon: 660000 M⁻¹ s⁻¹

B8: HC 1251_A06 (wt)/LC 1275_C10 (g) (antibody, human IgG1, kappa, V domains shown)
VH: B1 VH
VL: B1 VL with L11V, I29V, V33L, E41G, S46L, G50S, S52R, R53Y, H92N, T93L
notes: IgG format
Kd: 0.348 nM | koff: 0.000166 s⁻¹ | kon: 478000 M⁻¹ s⁻¹

B10: HC 1251_A06 (wt)/LC 1337_A10 (wt) (antibody, human IgG1, kappa, V domains shown)
VH: B1 VH
VL: B1 VL with A51S, H92N
notes: IgG format
Kd: 0.205 nM | koff: 0.000174 s⁻¹ | kon: 847000 M⁻¹ s⁻¹

B12: HC 1251_A06 (wt)/LC 1337_A09 (wt) (antibody, human IgG1, kappa, V domains shown)
VH: B1 VH
VL: B1 VL with S30G, V33L, G50A, S52D
notes: IgG format
Kd: 0.156 nM | koff: 9.19e-05 s⁻¹ | kon: 588000 M⁻¹ s⁻¹

More lines, in order of falling Kd, values ahead:

Kd: 0.411 nM | koff: 0.000235 s⁻¹ | kon: 571000 M⁻¹ s⁻¹
B9: HC 1251_A06 (wt)/LC 1337_A10 (g) (antibody, human IgG1, kappa, V domains shown)
VH: B1 VH
VL: B1 VL with L11V, E41G, S46L, A51S, H92N
notes: IgG format

Kd: 0.341 nM | koff: 0.000177 s⁻¹ | kon: 520000 M⁻¹ s⁻¹
B4: HC 1251_A06 (g)/LC 1275_C10 (wt) (antibody, human IgG1, kappa, V domains shown)
VH: B1 VH with D42G
VL: B1 VL with I29V, V33L, G50S, S52R, R53Y, H92N, T93L
notes: IgG format

Kd: 0.245 nM | koff: 0.00016 s⁻¹ | kon: 654000 M⁻¹ s⁻¹
B13: HC 1251_A06 (wt)/LC 1275_C10 (wt) (antibody, human IgG1, kappa)
heavy: not shown
light: MDIQMTQSPSSLSASVGDRVTITCRASQGVSSWLAWYQQKPEKAPKSLIYSARYLQSGVPSRFSGSGSGTDFTLTISSLQPEDFATYYCQQYNLYPLTFGGGTKVEIKRTVAAPSVFIFPPSDEQLKSGTASVVCLLNNFYPREAKVQWKVDNALQSGNSQESVTEQDSKDSTYSLSSTLTLSKADYEKHKVYACEVTHQGLSSPVTKSFNRGEC
notes: IgG format

Kd: 0.18 nM | koff: 0.00011 s⁻¹ | kon: 610000 M⁻¹ s⁻¹
B7: HC 1251_A06 (wt)/LC 1337_A09 (g) (antibody, human IgG1, kappa, V domains shown)
VH: B1 VH
VL: B1 VL with L11V, S30G, V33L, E41G, S46L, G50A, S52D
notes: IgG format

Kd: 0.131 nM | koff: 7.26e-05 s⁻¹ | kon: 552000 M⁻¹ s⁻¹
B11: HC 1251_A06 (g)/LC 1337_A09 (g) (antibody, human IgG1, kappa, V domains shown)
VH: B1 VH with D42G
VL: B1 VL with L11V, S30G, V33L, E41G, S46L, G50A, S52D
notes: IgG format
